# Biological target: yeast Fab1/PIKfyve kinase (yeast) (UniProt P34756)
# Test: cell-based or functional assay
# UniProt P34756, sequence (P34756 2-2278 limits assumed): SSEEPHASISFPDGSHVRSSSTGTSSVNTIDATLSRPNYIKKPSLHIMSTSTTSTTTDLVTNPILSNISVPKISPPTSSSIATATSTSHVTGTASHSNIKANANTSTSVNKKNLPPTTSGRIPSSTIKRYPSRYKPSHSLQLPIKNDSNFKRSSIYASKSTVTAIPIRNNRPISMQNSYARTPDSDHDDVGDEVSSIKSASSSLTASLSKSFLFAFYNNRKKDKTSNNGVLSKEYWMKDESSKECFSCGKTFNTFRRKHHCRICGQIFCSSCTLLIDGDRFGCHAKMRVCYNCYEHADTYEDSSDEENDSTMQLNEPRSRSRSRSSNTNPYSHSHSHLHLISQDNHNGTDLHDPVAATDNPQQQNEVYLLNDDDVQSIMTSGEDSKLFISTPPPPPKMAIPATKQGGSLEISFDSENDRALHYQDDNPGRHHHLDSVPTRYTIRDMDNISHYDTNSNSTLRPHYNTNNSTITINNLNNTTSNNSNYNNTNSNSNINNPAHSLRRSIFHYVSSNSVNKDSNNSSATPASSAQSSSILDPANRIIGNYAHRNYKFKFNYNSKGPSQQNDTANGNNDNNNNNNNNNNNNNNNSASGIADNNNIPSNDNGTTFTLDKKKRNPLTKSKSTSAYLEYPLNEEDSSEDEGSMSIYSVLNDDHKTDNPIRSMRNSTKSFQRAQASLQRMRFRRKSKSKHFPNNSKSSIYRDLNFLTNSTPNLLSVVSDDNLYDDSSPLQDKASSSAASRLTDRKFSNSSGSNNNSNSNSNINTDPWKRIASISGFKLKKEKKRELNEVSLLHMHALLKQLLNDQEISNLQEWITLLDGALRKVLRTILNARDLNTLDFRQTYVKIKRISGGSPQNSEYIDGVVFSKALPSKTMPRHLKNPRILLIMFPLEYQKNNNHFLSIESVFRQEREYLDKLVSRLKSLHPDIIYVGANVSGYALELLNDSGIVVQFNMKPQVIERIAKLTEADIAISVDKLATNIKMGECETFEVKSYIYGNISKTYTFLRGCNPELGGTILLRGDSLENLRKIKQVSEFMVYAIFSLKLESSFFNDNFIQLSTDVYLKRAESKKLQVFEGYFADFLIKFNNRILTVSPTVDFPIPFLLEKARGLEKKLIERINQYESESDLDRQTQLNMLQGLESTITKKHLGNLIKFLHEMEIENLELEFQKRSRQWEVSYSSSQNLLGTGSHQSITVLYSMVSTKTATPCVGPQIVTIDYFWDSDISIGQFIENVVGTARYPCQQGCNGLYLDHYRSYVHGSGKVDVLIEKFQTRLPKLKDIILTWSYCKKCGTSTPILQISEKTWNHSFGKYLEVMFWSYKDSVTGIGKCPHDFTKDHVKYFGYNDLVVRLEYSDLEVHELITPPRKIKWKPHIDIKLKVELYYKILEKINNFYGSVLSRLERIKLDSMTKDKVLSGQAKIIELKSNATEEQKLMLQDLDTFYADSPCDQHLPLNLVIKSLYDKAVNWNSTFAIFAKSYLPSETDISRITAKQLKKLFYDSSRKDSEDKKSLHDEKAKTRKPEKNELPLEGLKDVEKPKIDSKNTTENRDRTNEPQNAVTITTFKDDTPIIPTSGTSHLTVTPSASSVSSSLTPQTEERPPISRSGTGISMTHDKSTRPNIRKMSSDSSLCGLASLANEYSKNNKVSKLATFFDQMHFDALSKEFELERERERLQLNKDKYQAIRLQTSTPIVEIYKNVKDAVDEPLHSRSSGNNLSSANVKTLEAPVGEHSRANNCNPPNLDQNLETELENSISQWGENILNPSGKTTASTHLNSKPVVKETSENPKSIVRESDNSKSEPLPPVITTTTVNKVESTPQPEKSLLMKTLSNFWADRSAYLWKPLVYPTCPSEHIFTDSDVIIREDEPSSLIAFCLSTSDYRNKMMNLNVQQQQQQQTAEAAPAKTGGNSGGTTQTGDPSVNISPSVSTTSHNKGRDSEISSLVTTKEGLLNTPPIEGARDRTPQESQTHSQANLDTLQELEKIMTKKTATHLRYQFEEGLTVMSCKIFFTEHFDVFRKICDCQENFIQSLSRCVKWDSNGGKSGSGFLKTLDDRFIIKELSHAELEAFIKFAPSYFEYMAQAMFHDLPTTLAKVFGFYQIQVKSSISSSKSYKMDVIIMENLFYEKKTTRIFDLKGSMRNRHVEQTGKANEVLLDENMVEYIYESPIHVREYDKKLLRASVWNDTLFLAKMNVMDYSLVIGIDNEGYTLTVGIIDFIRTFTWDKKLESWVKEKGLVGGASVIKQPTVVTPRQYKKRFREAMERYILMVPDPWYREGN
substance,measurement,value
yeast FIG4 protein with the Ile>Thr mutation corresponding to human I41T (from UniProt P42837 1-879) (enzyme),"increase in intracellular PI(3,5)P2 concentration after hyperosmotic shock",4 fold
"yeast FIG4 protein, wildtype (from UniProt P42837 1-879)","increase in intracellular PI(3,5)P2 concentration after hyperosmotic shock",10 fold

# Reference: US9365899
